PMC1361355 (PLoS Pathogens, 2006)

T1: NiV-G-Fc, a fusion construct between the ectodomain of NiV-G and the Fc region of human IgG1 (Nipah virus, UniProt Q9IH62 71-602)
T1 sequence: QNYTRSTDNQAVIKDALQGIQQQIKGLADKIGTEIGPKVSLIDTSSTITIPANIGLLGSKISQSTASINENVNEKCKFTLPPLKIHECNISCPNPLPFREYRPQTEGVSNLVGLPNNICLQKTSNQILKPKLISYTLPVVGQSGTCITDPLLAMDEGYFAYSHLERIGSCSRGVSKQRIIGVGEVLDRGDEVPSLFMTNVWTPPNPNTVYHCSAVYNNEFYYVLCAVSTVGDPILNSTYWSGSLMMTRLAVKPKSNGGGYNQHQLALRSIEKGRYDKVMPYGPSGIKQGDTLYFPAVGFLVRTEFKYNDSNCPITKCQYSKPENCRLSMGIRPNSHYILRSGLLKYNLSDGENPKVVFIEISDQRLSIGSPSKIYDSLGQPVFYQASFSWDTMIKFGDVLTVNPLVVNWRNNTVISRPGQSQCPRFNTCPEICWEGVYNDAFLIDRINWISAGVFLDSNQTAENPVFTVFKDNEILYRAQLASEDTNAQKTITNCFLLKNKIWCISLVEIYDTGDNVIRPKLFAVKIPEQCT

T2: EphB4-Fc (UniProt P54760 16-539)
T2 sequence (looked up): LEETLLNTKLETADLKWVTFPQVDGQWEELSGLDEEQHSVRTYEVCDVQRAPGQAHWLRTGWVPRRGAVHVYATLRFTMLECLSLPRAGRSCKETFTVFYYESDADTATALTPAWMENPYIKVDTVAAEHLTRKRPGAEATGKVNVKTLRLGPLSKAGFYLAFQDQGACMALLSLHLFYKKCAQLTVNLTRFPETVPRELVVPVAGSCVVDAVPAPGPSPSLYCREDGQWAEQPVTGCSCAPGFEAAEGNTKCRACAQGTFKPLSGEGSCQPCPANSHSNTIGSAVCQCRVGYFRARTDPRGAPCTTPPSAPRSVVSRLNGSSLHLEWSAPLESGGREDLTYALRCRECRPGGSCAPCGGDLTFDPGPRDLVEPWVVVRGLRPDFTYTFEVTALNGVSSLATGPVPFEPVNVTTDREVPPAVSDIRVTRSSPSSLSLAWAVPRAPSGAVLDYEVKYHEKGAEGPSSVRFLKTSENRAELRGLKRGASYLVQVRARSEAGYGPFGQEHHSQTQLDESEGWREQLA


Assays:
[1] = molecular target: T1, NiV-G-Fc, a fusion construct between …; test: flow cytometry on cells; conditions: one partner purified
[2] = molecular target: T1, NiV-G-Fc, a fusion construct between …; test: SPR; BIAcore 3000; […]; 1:1 Langmuir model; conditions: both partners purified
EphB4-Fc = molecular target: T2, EphB4-Fc; test: SPR; unpublished data: BIAcore control, EphB4-Fc binding to ephrinB2-Fc; who was immobilised is not stated; conditions: both partners purified

Row | Binder | koff [2] | also measured
1 | human ephrinB3 stably expressed on CHO-pgsA745 cells (CHO-B3) (natural protein, UniProt Q15768 28-340, looked up, also called cell surface ephrinB3) LSLEPVYWNSANKRFQAEGGYVLYPQIGDRLDLLCPRARPPGPHSSPNYEFYKLYLVGGAQGRRCEAPPAPNLLLTCDRPDLDLRFTIKFQEYSPNLWGHEFRSHHDYYIIATSDGTREGLESLQGGVCLTRGMKVLLRVGQSPRGGAVPRKPVSEMPMERDRGAAHSLEPGKENLPGDPTSNATSRGAEGPLPPPSMPAVAGAAGGLALLLLGVAGAGGAMCWRRRRAKPSESRHPGPGSFGRGGSLGLGGGGGMGPREAEPGELGIALRGGGAADPPFCPHYEKVSGDYGHPVYIVQDGPPQSPPNIYYKV |  | Kd [1]: 0.58 nM
2 | ephrinB2-Fc (soluble Fc-fusion ephrin protein, purchased) (Fc fusion) RSIVLEPIYWNSSNSKFLPGQGLVLYPQIGDKLDIICPKVDSKTVGQYEYYKVYMVDKDQADRCTIKKENTPLLNCARPDQDVKFTIKFQEFSPNLWGLEFQKNKDYYIISTSNGSLEGLDNQEGGVCQTRAMKILMKVGQDASSAGSARNHGPTRRPELEAGTNGRSSTTSPFVKPNPGSSTDGNSAGHSGNNLLGSEVA | 0.000106 s⁻¹ | 
3 | ephrinB3-Fc (soluble Fc-fusion ephrin protein, purchased) (Fc fusion, source: bought: R & D Systems) LSLEPVYWNSANKRFQAEGGYVLYPQIGDRLDLLCPRARPPGPHSSPNYEFYKLYLVGGAQGRRCEAPPAPNLLLTCDRPDLDLRFTIKFQEYSPNLWGHEFRSHHDYYIIATSDGTREGLESLQGGVCLTRGMKVLLRVGQSPRGGAVPRKPVSEMPMERDRGAAHSLEPGKENLPGDPTSNATSRGAEGPLPPPSMP | 0.00194 s⁻¹ | 
4 | ephrinB2-Fc (soluble Fc-fusion ephrin protein, purchased) (Fc fusion, Ectodomain only. The human IgG1 Fc carrier, which makes the fusion a disulfide-linked dimer, is left out. Species is inferred: the R&D Systems ephrin-B2-Fc of that period was recalled as the mouse …) RSIVLEPIYWNSSNSKFLPGQGLVLYPQIGDKLDIICPKVDSKTVGQYEYYKVYMVDKDQADRCTIKKENTPLLNCARPDQDVKFTIKFQEFSPNLWGLEFQKNKDYYIISTSNGSLEGLDNQEGGVCQTRAMKILMKVGQDASSAGSARNHGPTRRPELEAGTNGRSSTTSPFVKPNPGSSTDGNSAGHSGNNLLGSEVA |  | Kd (EphB4-Fc): 0.37 nM
